Measured values published in PMC3084791, “The Structure of Helicobacter pylori HP0310 Reveals an Atypical Peptidoglycan Deacetylase” (PLoS ONE, 2011).

Target: the molecule itself
Experiment: crystal structure; crystals at 20°C by vapor diffusion, 0.2 M ammonium sulfate, 0.1 M trisodium citrate pH 5.6, 15% PEG 4000; space group C2221; one tetramer in the asymmetric unit; 2.57 Å

B1: Peptidoglycan deacetylase (HP0310, HpPgdA) from Helicobacter pylori (enzyme)
chain: MAKEILVAYGVDIDAVAGWLGSYGGEDSPDDISRGLFAGEVGIPRLLKLFKKYHLPATWFVPGHSIETFPEQMKMIVDAGHEVGAHGYSHENPIAMSTKQEEDVLLKSVELIKDLTGKAPTGYVAPWWEFSNITNELLLKHGFKYDHSLMHNDFTPYYVRVGDSWSKIDYSLEAKDWMKPLIRGVETNLVEIPANWYLDDLPPMMFIKKSPNSFGFVSPRDIGQMWIDQFDWVYREMDYAVFSMTIHPDVSARPQVLLMHEKIIEHINKHEGVRWVTFNEIADDFLKRNPRKK
notes: HP0310 (HpPgdA), peptidoglycan deacetylase, amplified from genomic H. pylori G27 with primers from the ATG to the stop codon; soluble protein of 293 amino acids; residues 2 to 291 visible in the crystal; Cloned in pET151 in frame with an N-terminal His-tag flanked by a TEV site; the entry of strain 26695 would be another; also called His tagged-Hp0310; H. pylori peptidoglycan deacetylase; source: …
- stoichiometry N: 4
